Results: US20200317768A1 (published 2020)
Where a chain is given by its changes, count along the chain named.

T1: cynomolgus monkey FcγRIIb extracellular domain, C-terminal His-tag (cynomolgus monkey)
T1 construct: also called cyno FcγRIIb; cynoFcγRIIb; not shown: His-tag added to C-terminus
T1 chain: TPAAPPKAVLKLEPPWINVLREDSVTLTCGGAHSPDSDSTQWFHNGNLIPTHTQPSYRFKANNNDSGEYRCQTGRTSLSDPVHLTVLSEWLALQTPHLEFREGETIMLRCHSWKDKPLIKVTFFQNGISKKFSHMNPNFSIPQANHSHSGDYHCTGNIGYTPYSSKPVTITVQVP

B1: M103205H795-MY242/M103202L889-SK1 (antibody, human IgG1, kappa)
heavy: QVTLKESGPVLVKPTETLTLTCTVSGIDLSHDDISWVRQAPGKGLEWVGIISYAGSTYYASWAKGRLTISKDTSKNQVVLTMTNMDPVDTATYYCARGVPAYSHGGDLWGQGTLVTVSSASTKGPSVFPLAPSSKSTSGGTAALGCLVKDYFPEPVTVSWNSGALTSGVHTFPAVLQSSGLYSLSSVVTVPSSSLGTQTYICNVNHKPSNTKVDKKVEPKSCDKTHTCPPCPAPELLGGISVFLFPPKPKDTLMISRTPEVTCVVVDVSDEDPEVKFNWYVDGVEVHNAKTKPREEQYNSTYRVVSVLTVLHQDWLNGKEYKCKVSNKALPKPIEKTISKAKGQPREPQVYTLPPSREEMTKNQVSLTCLVKGFYPSDIAVEWESNGQPENNYKTTPKVLDSDGSFFLYSKLTVDKSRWQQGNVFSCSVMHEALHNHYTQKSLSLSP
light: DIVMTQSPATLSLSPGERATLSCTSSQSVYHANWLSWFQQKPGQPPKLLIYWASTLAYGVPSRFSGSGSGTDFTLTISSLQPEDAATYYCAGGYGGGRYAFGQGTKVEIKRTVAAPSVFIFPPSDEQLKSGTASVVCLLNNFYPREAKVQWKVDNALQSGNSQESVTEQDSKDSTYSLSSTLTLSKADYEKHKVYACEVTHQGLSSPVTKSFNRGEC
B2: M103205H795-MY309/M103202L889-SK1 (antibody, human IgG1, kappa)
heavy: B1 heavy with G238T, I240P, D270E, K398M
light: B1 light
B3: M103205H795-MY269/M103202L889-SK1 (antibody, human IgG1, kappa)
heavy: B1 heavy with G238M, I240P
light: B1 light
B4: M103205H795-MY311/M103202L889-SK1 (antibody, human IgG1, kappa)
heavy: B1 heavy with G238T, I240P, D270E, Q297L, K398P
light: B1 light
B5: M103205H795-MY276/M103202L889-SK1 (antibody, human IgG1, kappa)
heavy: B1 heavy with G238I, I240P
light: B1 light
B6: M103205H795-MY318/M103202L889-SK1 (antibody, human IgG1, kappa)
heavy: B1 heavy with G238L, I240P, D270E, K328T, K398M
light: B1 light
B7: M103205H795-MY293/M103202L889-SK1 (antibody, human IgG1, kappa)
heavy: B1 heavy with G239Y, I240P, D270E, Q297L
light: B1 light
B8: M103205H795-MY271/M103202L889-SK1 (antibody, human IgG1, kappa)
heavy: B1 heavy with G238V, I240P
light: B1 light
B9: M103205H795-MY279/M103202L889-SK1 (antibody, human IgG1, kappa)
heavy: B1 heavy with G238H, I240P, Q297L, K398P
light: B1 light
B10: M103205H795-MY280/M103202L889-SK1 (antibody, human IgG1, kappa)
heavy: B1 heavy with G238V, I240P, Q297L, K398P
light: B1 light
B11: M103205H795-MY321/M103202L889-SK1 (antibody, human IgG1, kappa)
heavy: B1 heavy with G238H, I240P, K398M
light: B1 light
B12: M103205H795-MY274/M103202L889-SK1 (antibody, human IgG1, kappa)
heavy: B1 heavy with G238T, I240P
light: B1 light
B13: M103205H795-MY310/M103202L889-SK1 (antibody, human IgG1, kappa)
heavy: B1 heavy with G238T, I240P, D270E, K328T, K398P
light: B1 light
B14: M103205H795-MY270/M103202L889-SK1 (antibody, human IgG1, kappa)
heavy: B1 heavy with G238H, I240P
light: B1 light
B15: M103205H795-MY308/M103202L889-SK1 (antibody, human IgG1, kappa)
heavy: B1 heavy with G238T, I240P, D270E, K398P
light: B1 light
B16: M103205H795-MY312/M103202L889-SK1 (antibody, human IgG1, kappa)
heavy: B1 heavy with G238T, I240P, D270E, K328T, K398M
light: B1 light
B17: M103205H795-MY272/M103202L889-SK1 (antibody, human IgG1, kappa)
heavy: B1 heavy with G238Q, I240P
light: B1 light
B18: M103205H795-MY278/M103202L889-SK1 (antibody, human IgG1, kappa)
heavy: B1 heavy with G238M, I240P, Q297L, K398P
light: B1 light
B19: M103205H795-MY273/M103202L889-SK1 (antibody, human IgG1, kappa)
heavy: B1 heavy with G238L, I240P
light: B1 light
B20: M103205H795-MY281/M103202L889-SK1 (antibody, human IgG1, kappa)
heavy: B1 heavy with G238Q, I240P, Q297L, K398P
light: B1 light
B21: M103205H795-MY292/M103202L889-SK1 (antibody, human IgG1, kappa)
heavy: B1 heavy with G239Y, I240P, Q297L, K398M
light: B1 light

biological target: T2, cynomolgus monkey FcγRIIIaS extracellular domain, C-terminal His-tag (cynomolgus monkey, UniProt A3RFZ7 21-206 (rhesus entry)); assay: SPR (Biacore), antibody captured, FcgR analyte, 25 C
T2 construct: also called cyno FcγRIIIaS; cynoFcγRIIIaS; not shown: His-tag added to C-terminus
T2 sequence (A3RFZ7 21-206): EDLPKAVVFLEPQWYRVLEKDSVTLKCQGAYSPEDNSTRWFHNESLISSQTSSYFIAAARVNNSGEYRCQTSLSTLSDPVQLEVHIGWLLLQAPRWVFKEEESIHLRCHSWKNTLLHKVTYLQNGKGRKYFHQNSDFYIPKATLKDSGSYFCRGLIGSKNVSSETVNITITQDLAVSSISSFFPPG

Kd [µM]	Binder
0.99	B1
1.2	B2
0.22	B3
2.4	B4
1.2	B5
1.5	B6
4.2	B7
0.87	B8
2.4	B9
1.8	B10
11	B11
0.67	B12
1.8	B13
1.1	B14
2.9	B15
0.65	B16
0.29	B17
0.74	B18
1.7	B19
0.74	B20
4	B21

Biological target: T1, cynomolgus monkey FcγRIIb extracellular …
Assay: as above

Kd [µM]	Binder
1.1	B1
0.71	B2
0.35	B3
0.78	B4
0.31	B5
2.2	B6
0.86	B7
0.19	B8
0.91	B9
0.33	B10
0.54	B11
0.23	B12
0.95	B13
0.53	B14
1.3	B15
0.4	B16
0.43	B17
1.3	B18
1.2	B19
0.62	B20
0.43	B21
